Experimental data from US20220195418.

Target: T7 RNAP PACE variant L2-108.2 (mutations only in figure) (bacteriophage T7) (UniProt P00573)
Test: cell_activity
Conditions: lacZ reporter; relative to starting RNAP on T7 promoter

| Sequence | activity [%] |
| --- | --- |
| TAATACGACTCACTATA (double strand) [T7 promoter] | 100 |
| AATTAACCCTCACTAAA (double strand) [T3 promoter] | 270 |
